Experimental data reported in IntAct's records for PubMed 19270079.

Molecular target: pcd15_mouse Pcdh15 (UniProt Q99PJ1)
Sequence (Q99PJ1 whole entry): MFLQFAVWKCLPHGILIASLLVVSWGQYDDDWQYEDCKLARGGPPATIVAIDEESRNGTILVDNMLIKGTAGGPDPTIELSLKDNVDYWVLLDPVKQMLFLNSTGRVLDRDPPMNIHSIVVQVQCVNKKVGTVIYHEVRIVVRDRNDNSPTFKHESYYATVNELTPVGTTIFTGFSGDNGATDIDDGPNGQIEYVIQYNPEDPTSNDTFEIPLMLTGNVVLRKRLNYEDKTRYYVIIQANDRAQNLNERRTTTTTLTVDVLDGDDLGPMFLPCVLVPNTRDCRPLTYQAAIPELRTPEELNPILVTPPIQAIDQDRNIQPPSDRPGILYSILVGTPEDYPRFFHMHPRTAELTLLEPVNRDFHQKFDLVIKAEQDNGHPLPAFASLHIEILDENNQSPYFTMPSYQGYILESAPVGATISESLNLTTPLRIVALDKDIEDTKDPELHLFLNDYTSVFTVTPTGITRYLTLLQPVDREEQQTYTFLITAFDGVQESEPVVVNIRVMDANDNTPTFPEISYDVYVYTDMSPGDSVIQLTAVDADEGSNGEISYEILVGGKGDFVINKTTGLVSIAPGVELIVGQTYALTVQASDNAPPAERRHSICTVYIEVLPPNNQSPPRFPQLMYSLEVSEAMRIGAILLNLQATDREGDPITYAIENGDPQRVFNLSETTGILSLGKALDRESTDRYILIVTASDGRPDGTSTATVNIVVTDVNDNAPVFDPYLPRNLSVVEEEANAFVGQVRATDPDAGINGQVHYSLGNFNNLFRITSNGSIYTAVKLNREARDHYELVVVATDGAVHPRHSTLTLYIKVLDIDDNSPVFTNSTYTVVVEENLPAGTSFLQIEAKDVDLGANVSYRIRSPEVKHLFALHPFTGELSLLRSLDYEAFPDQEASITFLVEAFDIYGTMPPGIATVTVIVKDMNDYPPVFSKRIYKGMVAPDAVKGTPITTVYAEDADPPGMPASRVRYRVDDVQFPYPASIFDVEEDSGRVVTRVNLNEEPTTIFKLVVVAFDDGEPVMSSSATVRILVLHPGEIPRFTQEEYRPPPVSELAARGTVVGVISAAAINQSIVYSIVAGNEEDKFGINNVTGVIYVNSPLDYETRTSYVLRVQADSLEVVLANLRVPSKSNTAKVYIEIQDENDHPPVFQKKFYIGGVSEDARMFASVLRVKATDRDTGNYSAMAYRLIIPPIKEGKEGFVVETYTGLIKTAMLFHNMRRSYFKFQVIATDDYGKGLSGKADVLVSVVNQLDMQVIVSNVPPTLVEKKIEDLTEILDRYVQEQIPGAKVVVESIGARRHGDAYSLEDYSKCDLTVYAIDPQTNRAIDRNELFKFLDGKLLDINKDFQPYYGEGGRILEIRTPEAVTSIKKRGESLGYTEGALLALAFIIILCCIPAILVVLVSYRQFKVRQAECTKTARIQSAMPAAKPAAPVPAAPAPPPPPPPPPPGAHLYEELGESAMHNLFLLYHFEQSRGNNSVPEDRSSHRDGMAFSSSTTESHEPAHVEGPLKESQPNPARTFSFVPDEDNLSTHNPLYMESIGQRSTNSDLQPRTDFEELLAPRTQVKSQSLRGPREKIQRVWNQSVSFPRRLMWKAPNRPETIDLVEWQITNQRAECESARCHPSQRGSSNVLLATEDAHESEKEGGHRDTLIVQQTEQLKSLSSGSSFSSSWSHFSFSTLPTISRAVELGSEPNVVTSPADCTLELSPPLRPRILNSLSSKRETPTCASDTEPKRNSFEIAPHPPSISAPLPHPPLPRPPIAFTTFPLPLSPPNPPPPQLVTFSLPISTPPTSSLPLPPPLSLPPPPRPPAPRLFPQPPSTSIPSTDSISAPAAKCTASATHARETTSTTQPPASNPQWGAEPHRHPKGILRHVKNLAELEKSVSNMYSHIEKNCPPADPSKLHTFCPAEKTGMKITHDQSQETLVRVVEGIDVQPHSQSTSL

| effect of a mutation on the interaction | Substance |
| --- | --- |
| decreasing interaction | Cadherin-23 (Mus musculus), Q99PF4-1 E737V |
| decreasing interaction | Cadherin-23 (Mus musculus), Q99PF4-1 R1060W |
| decreasing interaction | Cadherin-23 (Mus musculus), Q99PF4-1 D124G |
